Experimental data as given in publication PMC12571865, “Profiling of HIV-1 elite neutralizer cohort reveals a CD4bs bnAb for HIV-1 prevention and therapy” (Nature immunology, 2025).

Target: T1, BG505 SOSIP.664 Env trimer (preparation for cryo-EM) (HIV-1 (strain BG505), UniProt Q2N0S6)
T1 construct: also called BG505_(SOSIP) trimer; source: Expi293F, transient co-transfection with a furin-encoding plasmid; copies: 3 + 3
Test: cryo-EM structure; Fab–trimer complexes in TBS, incubated overnight at room temperature: 04_A06–PGDM1400–BG505 at 3.6:1.2:1 (Fab:Fab:trimer), purified on Superose-6 Increase; 01_D03–BG505 and 05_B08–BG505 at 3.6:1 (Fab:trimer) without further SEC
Settings: both partners purified

B1: PGDM1400 Fab (Fab, V domains shown)
VH: QAQLVQSGPEVRKPGTSVKVSCKAPGNTLKTYDLHWVRSVPGQGLQWMGWISHEGDKKVIVERFKAKVTIDWDRSTNTAYLQLSGLTSGDTAVYYCAKGSKHRLRDYALYDDDGALNWAVDVDYLSNLEFWGQGTAVTVSS
VL: DFVLTQSPHSLSVTPGESASISCKSSHSLIHGDRNNYLAWYVQKPGRSPQLLIYLASSRASGVPDRFSGSGSDKDFTLKISRVETEDVGTYYCMQGRESPWTFGQGTKVDIK
  stoichiometry N: 1 Fab per trimer
